Data as given in paper PMC6707239.

What was measured:
[1] = biological target: human mitochondrial heat shock protein 60 (hsp60), wild type (human) (UniProt P10809); experiment: dynamic light scattering; Malvern Zetasizer Nano ZS, hsp60 (wild type or mutant) without nucleotide (APO); percent volume
[2] = biological target: human mitochondrial heat shock protein 60 (hsp60), wild type (human) (UniProt P10809); experiment: negative-stain electron microscopy; hsp60 and hsp10 (1:1 molar ratio) with 2 mM Mg-ADP, about 5 min at room temperature, no substrate
[3] = biological target: human mitochondrial heat shock protein 60 (hsp60), wild type (human) (UniProt P10809); experiment: dynamic light scattering; 1 uM hsp60 (wild type or mutant), 2 uM hsp10, 2 mM ADP; 5 min at 37 C; unbound nucleotide removed on desalting spin columns
[4] = biological target: human mitochondrial heat shock protein 60 (hsp60), wild type (human) (UniProt P10809); experiment: dynamic light scattering; 1 uM hsp60 (wild type or mutant), 2 uM hsp10, 100 mM ATP, 100 mM MgCl2; 5 min at 37 C; unbound nucleotide removed on desalting spin columns
[5] = biological target: human mitochondrial heat shock protein 60 (hsp60), wild type (human) (UniProt P10809); experiment: negative-stain electron microscopy; wild type hsp60/hsp10 with 2 mM ATP, about 5 min at room temperature, no substrate; bullet reconstruction, C7 symmetry, about 17 A
[6] = biological target: human mitochondrial heat shock protein 60 (hsp60), wild type (human) (UniProt P10809); experiment: negative-stain electron microscopy; hsp60 and hsp10 (2:1 molar ratio) with 100 mM ATP, about 5 min at room temperature, no substrate; football reconstruction, D7 symmetry, about 20 A
[7] = biological target: human mitochondrial heat shock protein 60 (hsp60), wild type (human) (UniProt P10809); experiment: negative-stain electron microscopy; purified hsp60/hsp10 at 0.2 mg/ml on carbon grids, no nucleotide and no substrate (APO conformation); class averages and single-particle reconstruction

human mitochondrial heat shock protein 60 (hsp60), wild type, sequence (P10809 27-573): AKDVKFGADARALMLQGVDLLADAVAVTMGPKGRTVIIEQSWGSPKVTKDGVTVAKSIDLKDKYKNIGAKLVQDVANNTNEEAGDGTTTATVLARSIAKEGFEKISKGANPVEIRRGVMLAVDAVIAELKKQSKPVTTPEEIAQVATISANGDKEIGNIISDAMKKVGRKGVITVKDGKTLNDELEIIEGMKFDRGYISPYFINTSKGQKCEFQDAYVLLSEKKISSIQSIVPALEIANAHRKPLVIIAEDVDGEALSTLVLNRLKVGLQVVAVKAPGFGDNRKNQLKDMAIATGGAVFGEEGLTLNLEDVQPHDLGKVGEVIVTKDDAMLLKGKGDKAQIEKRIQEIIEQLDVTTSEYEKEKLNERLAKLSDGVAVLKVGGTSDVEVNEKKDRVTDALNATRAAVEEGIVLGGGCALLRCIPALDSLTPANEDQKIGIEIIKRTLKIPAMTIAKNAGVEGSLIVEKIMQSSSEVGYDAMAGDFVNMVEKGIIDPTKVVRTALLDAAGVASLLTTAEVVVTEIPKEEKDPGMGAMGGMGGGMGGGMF

Substance: human mitochondrial heat shock protein 60 (hsp60), wild type (from UniProt P10809 27-573) (natural protein)
- stoichiometry N [1]: 14
- stoichiometry N [2]: 7
- stoichiometry N [3]: 14
- stoichiometry N [4]: 14
- stoichiometry N [5]: 14
- stoichiometry N [6]: 14
- stoichiometry N [7]: 14
